Among the data in patent US20160200782A1 are % activity values, retold here.

Assay in all cases: cell-based or functional assay
The target of assay [1] is PKG1α(h) (human), Q13976.
The target in assay [2] is PKCβI(h) (human), P05771.
The target of assay [3] is CaMKIIδ(h) (human), Q13557.
For assay [4], the target named is CK1δ(h) (human), P48730.
Assay [5] deals with CaMKIδ(h) (human), Q8IU85.
Assay [6] has as its target MKK7β(h) (human), O14733.
Assay [7] concerns the target JNK2α2(h) (human), P45984.

Sequence of CaMKIIδ(h) (human), Q13557 (Q13557 whole entry, stated change not applied): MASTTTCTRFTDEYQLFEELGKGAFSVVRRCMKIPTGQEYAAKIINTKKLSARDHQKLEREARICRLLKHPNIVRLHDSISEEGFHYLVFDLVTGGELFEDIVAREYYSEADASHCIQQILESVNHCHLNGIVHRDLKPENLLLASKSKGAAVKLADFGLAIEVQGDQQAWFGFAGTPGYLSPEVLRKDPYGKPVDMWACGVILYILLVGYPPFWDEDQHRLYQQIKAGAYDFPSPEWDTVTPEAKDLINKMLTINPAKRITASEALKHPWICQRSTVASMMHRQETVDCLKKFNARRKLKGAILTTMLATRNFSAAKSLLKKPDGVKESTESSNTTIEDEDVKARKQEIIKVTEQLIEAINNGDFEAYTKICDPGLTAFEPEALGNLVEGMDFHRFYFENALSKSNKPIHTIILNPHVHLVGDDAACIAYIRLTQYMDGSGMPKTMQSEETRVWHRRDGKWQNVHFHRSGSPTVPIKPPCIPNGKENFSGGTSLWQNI
Sequence of CK1δ(h) (human), P48730 (P48730 1-294, stated change not applied): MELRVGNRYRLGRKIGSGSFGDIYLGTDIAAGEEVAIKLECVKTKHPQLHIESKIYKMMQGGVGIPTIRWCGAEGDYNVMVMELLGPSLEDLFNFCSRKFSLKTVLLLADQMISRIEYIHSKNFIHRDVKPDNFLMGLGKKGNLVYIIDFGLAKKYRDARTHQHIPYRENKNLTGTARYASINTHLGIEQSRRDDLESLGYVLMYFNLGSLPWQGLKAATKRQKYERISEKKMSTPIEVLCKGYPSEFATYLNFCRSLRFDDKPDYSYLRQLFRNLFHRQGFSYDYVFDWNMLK
Sequence of MKK7β(h) (human), O14733 (O14733 whole entry): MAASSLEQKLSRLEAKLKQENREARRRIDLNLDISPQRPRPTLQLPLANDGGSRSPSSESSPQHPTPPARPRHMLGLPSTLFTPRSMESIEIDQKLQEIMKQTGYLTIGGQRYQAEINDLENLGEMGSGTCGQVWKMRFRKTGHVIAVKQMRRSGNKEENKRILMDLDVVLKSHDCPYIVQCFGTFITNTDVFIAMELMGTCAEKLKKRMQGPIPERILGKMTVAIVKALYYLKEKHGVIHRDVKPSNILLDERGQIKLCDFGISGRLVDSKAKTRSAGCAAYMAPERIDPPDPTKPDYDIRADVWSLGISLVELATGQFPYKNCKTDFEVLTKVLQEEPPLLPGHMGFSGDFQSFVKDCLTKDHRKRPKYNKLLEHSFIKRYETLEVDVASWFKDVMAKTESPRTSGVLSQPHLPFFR
Sequence of PKG1α(h) (human), Q13976 (Q13976 whole entry): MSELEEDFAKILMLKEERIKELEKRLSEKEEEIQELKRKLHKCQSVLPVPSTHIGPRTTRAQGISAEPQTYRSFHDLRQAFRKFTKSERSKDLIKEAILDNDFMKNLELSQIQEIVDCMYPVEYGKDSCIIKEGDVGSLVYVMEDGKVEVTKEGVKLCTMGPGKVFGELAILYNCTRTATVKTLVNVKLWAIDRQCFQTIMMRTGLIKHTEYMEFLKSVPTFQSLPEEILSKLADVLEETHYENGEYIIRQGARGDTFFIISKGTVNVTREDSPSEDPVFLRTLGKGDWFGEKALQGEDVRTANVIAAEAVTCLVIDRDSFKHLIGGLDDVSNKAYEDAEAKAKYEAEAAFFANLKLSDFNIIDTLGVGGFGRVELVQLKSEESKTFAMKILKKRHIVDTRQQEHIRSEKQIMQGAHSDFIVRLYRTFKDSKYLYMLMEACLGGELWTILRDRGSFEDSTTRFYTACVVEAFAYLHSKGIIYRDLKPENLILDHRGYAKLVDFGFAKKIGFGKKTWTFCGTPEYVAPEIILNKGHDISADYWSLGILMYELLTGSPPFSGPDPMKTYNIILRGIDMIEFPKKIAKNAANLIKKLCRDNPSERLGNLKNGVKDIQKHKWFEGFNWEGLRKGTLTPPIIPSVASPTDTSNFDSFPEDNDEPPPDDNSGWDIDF
Sequence of CaMKIδ(h) (human), Q8IU85 (Q8IU85 whole entry, stated change not applied): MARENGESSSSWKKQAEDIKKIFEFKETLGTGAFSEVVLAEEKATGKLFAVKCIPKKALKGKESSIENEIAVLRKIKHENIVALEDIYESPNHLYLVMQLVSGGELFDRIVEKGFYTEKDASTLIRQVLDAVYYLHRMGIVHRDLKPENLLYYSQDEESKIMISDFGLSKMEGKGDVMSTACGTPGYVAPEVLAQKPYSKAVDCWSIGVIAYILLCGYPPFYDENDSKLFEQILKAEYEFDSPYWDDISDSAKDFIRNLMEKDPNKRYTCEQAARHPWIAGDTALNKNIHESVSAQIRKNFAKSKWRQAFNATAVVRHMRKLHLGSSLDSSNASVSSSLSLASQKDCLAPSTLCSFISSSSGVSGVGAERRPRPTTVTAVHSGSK
Sequence of PKCβI(h) (human), P05771 (P05771 whole entry): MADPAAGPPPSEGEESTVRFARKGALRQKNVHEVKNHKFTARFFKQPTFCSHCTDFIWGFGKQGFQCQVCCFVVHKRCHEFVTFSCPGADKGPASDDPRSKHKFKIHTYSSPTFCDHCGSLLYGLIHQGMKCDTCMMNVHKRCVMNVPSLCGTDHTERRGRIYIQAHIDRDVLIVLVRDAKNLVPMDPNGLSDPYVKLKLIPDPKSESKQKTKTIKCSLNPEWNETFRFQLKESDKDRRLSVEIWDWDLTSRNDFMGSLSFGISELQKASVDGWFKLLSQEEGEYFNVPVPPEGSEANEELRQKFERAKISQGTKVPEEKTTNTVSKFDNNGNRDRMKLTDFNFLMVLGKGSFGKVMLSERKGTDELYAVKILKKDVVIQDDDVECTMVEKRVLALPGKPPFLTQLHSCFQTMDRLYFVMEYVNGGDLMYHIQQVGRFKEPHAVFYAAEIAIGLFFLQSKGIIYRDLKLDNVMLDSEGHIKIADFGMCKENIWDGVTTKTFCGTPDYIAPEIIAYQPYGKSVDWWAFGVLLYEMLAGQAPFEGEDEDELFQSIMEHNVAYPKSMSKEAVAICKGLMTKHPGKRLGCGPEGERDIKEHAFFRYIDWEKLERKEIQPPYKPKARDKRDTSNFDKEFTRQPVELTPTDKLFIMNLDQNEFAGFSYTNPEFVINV

B1: MMI-0300 (peptide)
peptide: FAKLAARLYRKALARQLGVAA
For B1, the % activity came to 64% in assay [1]; 78% in assay [2]; 1% in assay [3]; 92% in assay [4]; 10% in assay [5]; 100% in assay [6]. The molecule further gave a % activity in assay [7] of 98%.

B2: MMI-0400 (peptide)
peptide: KAFAKLAARLYRKALARQLGVAA
Consider B2, for which the % activity in assay [1] came out at 58%; in assay [2], 78%; in assay [3], 2%; in assay [4] it was 93%; in assay [5] it was 17%; in assay [6], 94%. Further, the % activity in assay [7] was found to be 96%.
